Test results reported in US20250313625A1 (ELPISCIENCE SUZHOU BIOPHARMA, published 2025).
Residue numbers refer to the chain shown, from its start. Names and notes keep the numbering of the source. Like-named read-outs stand apart in the source and are kept apart here.

Legend:
[1] = biological target: T1, human LAG3 (form used in Octet, Biacore and HDX-MS not given) (human, UniProt P18627 23-450, limits assumed); assay: BLI (Octet), 1:1 fit
T1 sequence (looked up): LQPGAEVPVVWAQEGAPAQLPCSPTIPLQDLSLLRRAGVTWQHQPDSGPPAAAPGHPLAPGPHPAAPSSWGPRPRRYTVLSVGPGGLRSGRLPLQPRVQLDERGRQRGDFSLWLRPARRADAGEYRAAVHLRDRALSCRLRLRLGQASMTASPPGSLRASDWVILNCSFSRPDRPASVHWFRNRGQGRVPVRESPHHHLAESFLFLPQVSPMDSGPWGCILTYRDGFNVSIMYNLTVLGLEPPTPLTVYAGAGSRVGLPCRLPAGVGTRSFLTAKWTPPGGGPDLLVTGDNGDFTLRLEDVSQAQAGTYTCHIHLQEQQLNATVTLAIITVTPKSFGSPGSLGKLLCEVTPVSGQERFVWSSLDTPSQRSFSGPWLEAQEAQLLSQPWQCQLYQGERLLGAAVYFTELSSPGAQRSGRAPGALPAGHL
Procedure: The purified chimeric antibodies were characterized for binding affinity against human LAG3 using Bio-Layer Interferometry technology (Octet system). The association and dissociation curves were fit with 1:1 binding model, and the Ka/Kd/KD values for each antibody were calculated.

[2] = biological target: T2, human LAG3, full length, stably expressed on cells (human, UniProt P18627 23-525); assay: FACS on 293F cells stably expressing human LAG3
T2 construct: whole, on cells; also called CHOK1-human LAG3
T2 sequence (looked up): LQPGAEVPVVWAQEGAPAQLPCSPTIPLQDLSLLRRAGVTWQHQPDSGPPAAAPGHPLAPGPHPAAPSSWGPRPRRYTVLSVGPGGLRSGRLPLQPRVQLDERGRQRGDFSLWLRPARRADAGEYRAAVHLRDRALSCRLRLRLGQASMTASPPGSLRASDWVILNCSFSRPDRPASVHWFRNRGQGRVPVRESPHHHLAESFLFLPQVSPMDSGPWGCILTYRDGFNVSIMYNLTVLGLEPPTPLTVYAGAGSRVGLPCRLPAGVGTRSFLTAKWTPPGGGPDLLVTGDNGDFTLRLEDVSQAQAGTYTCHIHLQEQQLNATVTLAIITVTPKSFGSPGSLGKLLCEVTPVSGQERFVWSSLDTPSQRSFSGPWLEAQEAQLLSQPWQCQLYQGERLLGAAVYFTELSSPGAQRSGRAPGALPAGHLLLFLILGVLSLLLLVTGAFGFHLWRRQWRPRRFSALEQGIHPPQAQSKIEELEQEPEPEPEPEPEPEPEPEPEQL
Procedure: (§1) Briefly the antibodies were incubated with 2×10⁵ target cells at 4° C. for 1 hour. After washing, fluorescence labeled anti-mouse IgG 2nd antibody (Life Technologies) was added and incubated at 4° C. for 1 hour. Geometric median fluorescence intensity (MFI) was detected and EC₅₀ was calculated using GraphPad Prism9.0.
(§2) MFI was detected and EC₅₀ was calculated using GraphPad Prism9.0.

[3] = biological target: T3, mFc tagged human LAG3 ECD recombinant protein (human, UniProt P18627 23-450); assay: competitive FACS: mFc-LAG3 ECD binding to Raji cells (MHC II)
T3 construct: extracellular domain; purchased from Biointron; not shown: mouse IgG Fc (mFc) tag
T3 sequence (looked up): T1 sequence (looked up)
Procedure: (§3) Activity of the purified chimeric antibodies to block LAG3 and MHC II interaction was determined by competitive FACS assay. […] After washing, dye labeled anti-mouse Fc 2nd antibody (Sigma) was added and incubated at 37° C. for 1 hour. Fluorescence intensity was detected.

[4] = biological target: T4, human LAG3 ECD recombinant protein (plate coated, tag not stated) (human, UniProt P18627 23-450); assay: competitive ELISA format I: His-FGL1 binding to coated LAG3 ECD
T4 construct: extracellular domain
T4 sequence (looked up): T1 sequence (looked up)
Procedure: (§4) After washing, HRP labeled anti-His 2nd antibody (Sigma) was added and incubated at 37° C. for 1 hour. Then, 100 μl/well of TMB solution (Biotechnology) was added. After incubation for 15 minutes at room temperature, the reaction was stopped by the addition of 50 μl of 1N HCl. OD 450 nm was read. […] After washing, HRP labeled anti-SA 2nd antibody (Sigma) was added and incubated at 37° C. for 1 hour. Then, 100 μl/well of TMB solution (Biotechnology) was added. After incubation for 15 minutes at room temperature, the reaction was stopped by the addition of 50 μl of 1N HCl. OD 450 nm was read. […] The competition assay of format III is a competitive FACS assay. […] After washing, dye labeled anti-His 2nd antibody (Sigma) was added and incubated at 37° C. for 1 hour. Fluorescence intensity was detected.

[5] = biological target: T1, human LAG3 (form used in Octet, Biacore …); assay: BLI (Octet)
[6] = biological target: T2, human LAG3, full length, stably …; assay: FACS on 293F cells stably expressing human LAG3; remark: listed apart in the source
Procedure: as §1, §2

[7] = biological target: T3, mFc tagged human LAG3 ECD recombinant …; assay: competitive FACS: mFc-LAG3 ECD binding to Raji cells (MHC II); remark: listed apart in the source
Procedure: as §3

[8] = biological target: T5, hFc tagged human LAG3 ECD recombinant protein (human, UniProt P18627 23-450); assay: competitive ELISA format II: biotin hFc-LAG3 ECD binding to coated His-FGL1
T5 construct: range 23-450; also called biotin labelled hFc tagged human LAG3 ECD; not shown: human IgG Fc tag
T5 sequence (looked up): T1 sequence (looked up)
Procedure: as §4

B1: TSR-033 (antibody, V domains shown)
VH: EVQLVQSGAEVKKPGATVKISCKASGFSIKDDYIHWVQQAPGKGLEWMGWIDAMNDDSQYSSKFQGRVTITVDTSTNTAYMKLSSLRSEDTAVYYCTYAFGGYWGQGTTVTVSS
VL: DIVMTQTPLSLSVTPGQPASISCRSSQSLVHSDSNTYLHWYLQKPGQSPQLLIYLVSNRFSGVPDRFSGSGSGTDFTLKISRVEAEDVGVYFCGQSTHVPYAFGGGTKVEIK
Work on B1 yielded a Kd [1] of 2.72 nM, a koff [1] of 0.000674 s⁻¹ and a kon [1] of 248000 M⁻¹ s⁻¹. For the same binder, the EC50 [2] was 2.6 nM, the “TOP MFI” value [2] was 247 and the IC50 [3] was 12.4 nM. The “TOP blocking (%)” value [3] was 96%.

B2: 033c (antibody, human IgG4, V domains shown)
VH: EVQLQQSGAELVRPGASVKLSCTASDFNIKDDYIHWVKQRPEQGLEWIGWIDLENGDTEYASKFQGKATITADTSSNTAYLQLSSLTSEDTAVYYCTTKGSHWGQGTLVTVSA
VL: DVVMTQIPLSLPVSLGDQASISCRSSQSLVYSNGNTYLNWYLQKPGQSPKLLIHKVSNRFSGVPDRFSGSGSGTDFTLKISRVEAEDLGVYFCSQSTHVPYTFGGGTKLEIR
notes: human IgG4 S228P / kappa chimeric antibody; also called chimeric antibody 033; not shown: human kappa light chain constant region (pcDNA3.4-hIgGk vector)
In the case of B2, the EC50 [2] is reported as 2.4 nM, the “TOP MFI” value [2] is reported as 394 and the IC50 [3] is reported as 3.9 nM. The “TOP blocking (%)” value [3] was 95% and the “Blocking ratio at 66.7 nM (%)” value [4] was 67.8%.

B3: 039c (antibody, human IgG4, V domains shown)
VH: EFQLQQSGPELVKPGASVKISCKASGYSFTDYNLNWVRQSNGKSLEWIGLVDPIYGTIRYNQNFKDKATLTVDQSSSTAYMQLNSLTSEDSAVYYCASIMTAVRYFDHWGQGTTLTVSS
VL: DVLMTQTPLFLPVSLGDQASISCRSSLNIVHSDGNTYLEWYLQKPGQSPKLLIYKVSNRFSGVPDRFSGSGSGTDFTLKISGVEAEDLGVYYCFQGSHVPPTFGGGTKLEIK
notes: human IgG4 S228P / kappa chimeric antibody; also called chimeric antibody 039; not shown: human kappa light chain constant region (pcDNA3.4-hIgGk vector)
In the case of B3, the EC50 [2] is reported as 1.3 nM, the “TOP MFI” value [2] is reported as 302 and the IC50 [3] is reported as 4.7 nM. The “TOP blocking (%)” value [3] was 62% and the “Blocking ratio at 66.7 nM (%)” value [4] was 40.2%.

B4: hu023.07 (antibody, human IgG4, V domains shown)
VH: QVQLVQSGPEVKKPGASVKVSCKASGYTFTESPMNWVRQAPGQGFEWMGIIYTDTGEPTYAEEFKGRVTMTLDTSTSTVYMELSSLRSEDTAVYFCASDYGSILYWYFDVWGQGTLVTVSS
VL: DIQMTQSPSSLSASVGDRVTITCKASQDVSTAVAWYQQKPGKAPKLLIYSASYRYTGVPSRFSGSGSGTDFTLTISSLQPEDFATYYCQQHYNAPPTFGQGTKLEIK
notes: humanized from 023c
B4 gave a Kd [5] of 0.591 nM, a koff [5] of 0.000153 s⁻¹ and a kon [5] of 259000 M⁻¹ s⁻¹. For the same binder, the EC50 [6] was 0.32 nM, the “TOP MFI” value [6] was 2990 and the IC50 [7] was 5.5 nM. For the same binder, the “TOP blocking (%)” value [7] was 99.2%, the IC50 [8] was 1.5 nM and the “TOP blocking (%)” value [8] was 81.3%.

B5: hu023.10 (antibody, human IgG4, V domains shown)
VH: QVQLVQSGPELKKPGASVKVSCKASGYTFTESPMNWVRQAPGQGFEWMGIIYTDTGEPTYAEEFKGRFVFSLDTSVSTAYLQISSLKAEDTAVYFCVSDYGSILYWYFDVWGQGTLVTVSS
VL: B4 VL
notes: humanized from 023c
B5 was tested, and the Kd [5] was 0.281 nM, the koff [5] was 7.96e-05 s⁻¹ and the kon [5] was 284000 M⁻¹ s⁻¹. For the same binder, the EC50 [6] was 0.2 nM, the “TOP MFI” value [6] was 3200 and the IC50 [7] was 5.9 nM. For the same binder, the “TOP blocking (%)” value [7] was 99.2%, the IC50 [8] was 1.3 nM and the “TOP blocking (%)” value [8] was 82.8%.

B6: hu023.13 (antibody, human IgG4, V domains shown)
VH: B5 VH with V2I, V20I
VL: B4 VL
notes: humanized from 023c
With B6 the Kd [5] was 0.121 nM, the koff [5] was 3.67e-05 s⁻¹ and the kon [5] was 303000 M⁻¹ s⁻¹. The EC50 [6] was 0.19 nM, the “TOP MFI” value [6] was 3100 and the IC50 [7] was 5.7 nM. For the same binder, the “TOP blocking (%)” value [7] was 99.3%, the IC50 [8] was 1.2 nM and the “TOP blocking (%)” value [8] was 83.2%.
